According to patent US20210155689A1 (SHANGHAI PHARMAEXPLORER, published 2021):

B1: 105F1E10 mouse-human chimeric antibody (antibody, V domains shown)
VH: EVQLQQSGPELVKPGASVKMSCRASGYTFTDFKMHWMKQSHGKSLEWIGYIAPNNGGTAYNQKFRGKATLTVNESSNTAYMELRSLTSEDSAVYYCVDWDDVDYWGQGTTLTVSS
VL: DIKMTQSPSSMYASLGERVTITCKASQDINSYLSWFQQKSGKSPKTLIYRANRLVDGVPSRFSGSGSGQDYSLTISSLEYEDMGIYYCLQYVEFPLTFGAGTKLELK
notes: also called mAb009-105F1E10
B2: 405B8H3 mouse-human chimeric antibody (antibody, V domains shown)
VH: QVQLQQSGAELVRPGASVTLSCKASGYTFTDYEMHWVKQTPVHGLEWIGATDPETGNSAYNQKFKGKAIMTADKSSSTAYMELRSLTSEDSAVYYCISTGWNDWGQGTSLTVSS
VL: DIKMTQSPSSMYASLGERVTITCKASQDINSYLSWFQQKPGKSPKTLIYRADRLLDGVPSRFSGSGSGQDYSLTISSLEYGDMGIYYCLQYDEFPYTFGGGTKLEIK
notes: also called mAb103-405B8H3
B3: 409D4E10 mouse-human chimeric antibody (antibody, V domains shown)
VH: QVQLQQSGAELVRPGASVTLSCKASGNTFTDYEMHWVKQTPVHGLEWIGATDPETDNTAYNQKFKGKAILTTDKSSSTAYMELRSLTSEDSAVYYCITSGWNDWGQGTSLTVSS
VL: DIKMTQSPSSMYASLGERVTITCKASQDINSYLSWFQQKPGKSPKTLIYRANRLLDGVPSRFSGSGSGQDYSLTISSLEYEDMGIYYCLQYNEFPYTFGGGTKLEIK
notes: also called mAb112-409D4E10
B4: 409B11E12 mouse-human chimeric antibody (antibody, V domains shown)
VH: QVQLQQSGAELVRPGASVTLSCKASGYTFTDYEMHWVKQTTVHGLEWIGATDPETSYSAYNQKFKGKAILTADKSSSTAYMELRSLTSEDSAVYYCIATGWNDWGQGTSLTVSS
VL: DLKMTQSPSSMYASLGERVTITCKASQDINSYLSWFQQKPGKSPKTLIYRANRLLDGVPSRFSGSGSGQDYSLTISSLEYEDMGIYYCLQYDEFPYTFGGGTKLEIK
notes: also called mAb104-409B11E12

Tests used:
[1] = biological target: T1, monkey LAG-3 on cells (HEK293-cLAG-3 stable cell line) (monkey, UniProt P18627 24-525 (human entry)); experiment: FACS, HEK293-cLAG-3, antibody 0.000 nM
T1 construct: Full-length monkey (Chinese monkey) LAG-3 gene expressed on HEK293 cells
T1 chain: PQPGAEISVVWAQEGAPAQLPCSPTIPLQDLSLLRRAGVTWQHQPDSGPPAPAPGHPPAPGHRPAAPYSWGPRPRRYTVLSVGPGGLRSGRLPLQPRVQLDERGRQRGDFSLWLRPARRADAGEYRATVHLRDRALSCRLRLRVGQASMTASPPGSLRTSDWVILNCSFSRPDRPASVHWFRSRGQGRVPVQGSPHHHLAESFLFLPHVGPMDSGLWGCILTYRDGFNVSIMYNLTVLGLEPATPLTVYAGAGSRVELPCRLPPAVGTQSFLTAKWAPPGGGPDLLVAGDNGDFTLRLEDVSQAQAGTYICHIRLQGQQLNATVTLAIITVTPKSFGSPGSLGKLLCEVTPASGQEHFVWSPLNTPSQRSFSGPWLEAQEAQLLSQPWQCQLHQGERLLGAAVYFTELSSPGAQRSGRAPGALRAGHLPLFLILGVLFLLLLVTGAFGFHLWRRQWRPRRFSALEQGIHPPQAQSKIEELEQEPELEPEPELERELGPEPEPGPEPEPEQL
From the text: (§1) The pIRES plasmid with the monkey-derived full-length gene was transfected into the HEK293 cell line to construct a HEK293 stable cell line containing monkey LAG-3 (herein referred to as HEK293-cLAG-3 stable cell line). The HEK293-hLAG-3 stable cell line and HEK293-cLAG-3 stable cell line were expanded in a T-75 cell culture flask to a 90% confluence. The medium was aspirated, and the cells were washed with HBSS (Hanks' Balanced Salt Solution) 1-2 times, then treated with a enzyme-free cell dissociation fluid (Versene solution: Life technology) and the cells were collected. The cells were washed with HBSS buffer for 1-2 times. After counted, the cells were diluted with HBSS to 1-2×10⁶ cells per ml, added with 1% goat serum blocking solution, incubated on ice for 20-30 minutes, and then washed with HBSS for 2 times by centrifugation. The collected cells were suspended in the FACS buffer (HBSS+1% BSA) to 2×10⁶ cells/ml, added as 100 microliters per well to a 96-well FACS reaction plate, added with 100 microliters per well of the antibody sample to be tested, incubated on ice for 1-2 hours. The plate was washed twice with the FACS buffer by centrifugation, added with 100 microliters of fluorescent (Alexa 488)-labeled secondary antibodies per well, and incubated on ice for 0.5-1.0 hours. The plate was washed 2-3 times with FACS buffer by centrifugation, added with 100 μl fixative solution (4% Paraformaldehyde) per well to suspend the cells. 5-10 minutes later, it was washed 1-2 times with FACS buffer by centrifugation. The cells were suspended with 100 microliters of FACS buffer, FACS (FACSCalibur, BD) was used for detection and the results were analyzed.

[2] = biological target: T2, human LAG-3 on cells (HEK293-hLAG-3 stable cell line) (human, UniProt P18627 23-525); experiment: FACS, HEK293-hLAG-3, antibody 0.320 nM
T2 sequence: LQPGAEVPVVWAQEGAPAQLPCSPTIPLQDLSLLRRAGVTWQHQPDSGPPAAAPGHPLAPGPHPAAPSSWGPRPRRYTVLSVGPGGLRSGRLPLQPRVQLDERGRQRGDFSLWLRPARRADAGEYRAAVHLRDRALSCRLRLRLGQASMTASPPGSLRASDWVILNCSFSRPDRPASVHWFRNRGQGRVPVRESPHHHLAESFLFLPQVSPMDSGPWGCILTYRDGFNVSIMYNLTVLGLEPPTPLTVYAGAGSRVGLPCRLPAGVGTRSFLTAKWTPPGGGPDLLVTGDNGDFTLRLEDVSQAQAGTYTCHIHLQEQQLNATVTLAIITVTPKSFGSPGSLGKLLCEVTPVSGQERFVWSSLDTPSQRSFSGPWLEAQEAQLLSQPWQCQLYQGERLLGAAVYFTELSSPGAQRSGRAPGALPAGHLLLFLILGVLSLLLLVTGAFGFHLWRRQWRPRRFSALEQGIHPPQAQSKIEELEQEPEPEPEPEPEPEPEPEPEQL
From the text: as §1

Binder	Mean fluorescence intensity [1]	Mean fluorescence intensity [2]
B1	2.72	10.7
B2	2.9	17.3
B3	2.99	15.7
B4	2.84	16.8
